“And” between values parts separate entries of the source, which are not always exact repeats. Equal values may be shown once. Read-outs that look alike come from different tables or passages of the source.
How the values were obtained:
[1] = target: human vascular endothelial growth factor A (VEGF-A) (human) (UniProt P15692)
[2] = target: human vascular endothelial growth factor A (VEGF-A) (human) (UniProt P15692); assay: SPR, table row 15
[3] = target: human vascular endothelial growth factor A (VEGF-A) (human) (UniProt P15692); assay: SPR, table row 18
[4] = target: human epidermal growth factor receptor 2 (HER2) extracellular domain (human) (UniProt P04626); assay: SPR
[5] = target: human vascular endothelial growth factor A (VEGF-A) (human) (UniProt P15692); assay: SPR
[6] = target: human epidermal growth factor receptor 2 (HER2) extracellular domain (human) (UniProt P04626); assay: not stated (FIG. 6A)
[7] = target: human vascular endothelial growth factor A (VEGF-A) (human) (UniProt P15692); assay: not stated (FIG. 6A)
[8] = target: human epidermal growth factor receptor 2 (HER2) extracellular domain (human) (UniProt P04626); assay: SPR, table row 12
[9] = target: human vascular endothelial growth factor A (VEGF-A) (human) (UniProt P15692); assay: SPR, table row 12
[10] = target: human vascular endothelial growth factor A (VEGF-A) (human) (UniProt P15692); assay: SPR, table row 17
[11] = target: human epidermal growth factor receptor 2 (HER2) extracellular domain (human) (UniProt P04626); assay: SPR, table row 20
[12] = target: human vascular endothelial growth factor A (VEGF-A) (human) (UniProt P15692); assay: SPR, table row 20

Sequence of human vascular endothelial growth factor A (VEGF-A) (human) (P15692 220-313 limits assumed): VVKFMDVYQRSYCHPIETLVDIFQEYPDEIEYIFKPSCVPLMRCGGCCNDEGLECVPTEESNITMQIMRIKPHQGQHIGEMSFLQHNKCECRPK

Trastuzumab bH1 (antibody)
Kd [1]: 24.8 nM and 26.2 nM and 31.1 nM | koff [1]: 0.00027 s⁻¹ and 0.000282 s⁻¹ and 0.000342 s⁻¹ | kon [1]: 10900 M⁻¹ s⁻¹ and 10800 M⁻¹ s⁻¹ and 11000 M⁻¹ s⁻¹ | Kd [2]: 21.8 nM | koff [2]: 0.000254 s⁻¹ | kon [2]: 11700 M⁻¹ s⁻¹ | Kd [3]: 23.2 nM | koff [3]: 0.00025 s⁻¹ | kon [3]: 10800 M⁻¹ s⁻¹ | Kd [4]: 32.9 nM | Kd [5]: 23.5 nM | Kd [6]: 26 nM | Kd [7]: 300 nM | Kd [8]: 3.22 nM | koff [8]: 6.2e-05 s⁻¹ | kon [8]: 19300 M⁻¹ s⁻¹ | Kd [9]: 18.4 nM | koff [9]: 0.000211 s⁻¹ | kon [9]: 11500 M⁻¹ s⁻¹ | Kd [10]: 22.7 nM | koff [10]: 0.00028 s⁻¹ | kon [10]: 12300 M⁻¹ s⁻¹ | Kd [11]: 10.3 nM | koff [11]: 9.72e-05 s⁻¹ | kon [11]: 9470 M⁻¹ s⁻¹ | Kd [12]: 24.2 nM | koff [12]: 0.00026 s⁻¹ | kon [12]: 10800 M⁻¹ s⁻¹

Source: patent US20250218531A1
